In patent US20250320281A1:

Experiments:
Assay in all cases: cell-based or functional assay
[1] = target: HIV-1 Env of isolate MGRM-C-007 (HIV-1)
[2] = target: HIV-1 Env of isolate MGRM-C-009 (HIV-1)
[3] = target: HIV-1 Env of isolate MGRM-C-004 (HIV-1)
[4] = target: HIV-1 Env of isolate MGRM-C-002 (HIV-1)
[5] = target: HIV-1 Env of isolate MGRM-C-010 (HIV-1)
[6] = target: HIV-1 Env of isolate MGRM-C-022 (HIV-1)
[7] = target: HIV-1 Env of isolate MGRM-C-023 (HIV-1)
[8] = target: HIV-1 Env of isolate MGRM-C-012 (HIV-1)
[9] = target: HIV-1 Env of isolate MGRM-C-008 (HIV-1)
[10] = target: HIV-1 Env of isolate MGRM-C-025 (HIV-1)
[11] = target: HIV-1 Env of isolate MGRM-C-001 (HIV-1)
[12] = target: HIV-1 Env of isolate MGRM-C-006 (HIV-1)
[13] = target: HIV-1 Env of isolate MGRM-C-005 (HIV-1)
[14] = target: HIV-1 Env of isolate MGRM-C-015 (HIV-1)
[15] = target: HIV-1 Env of isolate MGRM-C-013 (HIV-1)
[16] = target: HIV-1 Env of isolate MGRM-C-014 (HIV-1)
[17] = target: HIV-1 Env of isolate MGRM-C-024 (HIV-1)
[18] = target: HIV-1 Env of isolate MGRM-C-020 (HIV-1)
[19] = target: HIV-1 Env of isolate MGRM-C-017 (HIV-1)
[20] = target: HIV-1 Env of isolate MGRM-C-019 (HIV-1)
[21] = target: HIV-1 JRCSF Env (pseudovirus) (HIV-1) (UniProt P20871)
[22] = target: HIV-1 MGRM-C-026 Env (pseudovirus) (HIV-1)
[23] = target: HIV-1 92UG024 Env (pseudovirus) (HIV-1)
[24] = target: HIV-1 MGRM-C-027 Env (pseudovirus) (HIV-1)
[25] = target: HIV-1 MGRM-D-018 Env (pseudovirus) (HIV-1)
[26] = target: HIV-1 MGRM-A-010 Env (pseudovirus) (HIV-1)
[27] = target: HIV-1 APV6 Env (pseudovirus) (HIV-1)
[28] = target: HIV-1 MGRM-C-028 Env (pseudovirus) (HIV-1)
[29] = target: HIV-1 NL43 Env (pseudovirus) (HIV-1)
[30] = target: HIV-1 92UG005 Env (pseudovirus) (HIV-1)
[31] = target: HIV-1 CMU02 Env (pseudovirus) (HIV-1)
[32] = target: HIV-1 94UG103 Env (pseudovirus) (HIV-1)
[33] = target: HIV-1 92TH021 Env (pseudovirus) (HIV-1)
[34] = target: HIV-1 93IN905 Env (pseudovirus) (HIV-1)
[35] = target: HIV-1 92RW020 Env (pseudovirus) (HIV-1)

Sequence of 4993_K13 (PGT-141) (antibody) (VH): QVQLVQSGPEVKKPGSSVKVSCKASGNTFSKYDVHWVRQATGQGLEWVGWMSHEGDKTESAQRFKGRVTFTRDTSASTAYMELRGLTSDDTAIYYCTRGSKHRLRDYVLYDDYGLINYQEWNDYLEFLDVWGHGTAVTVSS
Sequence of 4993_K13 (PGT-141) (antibody) (VL): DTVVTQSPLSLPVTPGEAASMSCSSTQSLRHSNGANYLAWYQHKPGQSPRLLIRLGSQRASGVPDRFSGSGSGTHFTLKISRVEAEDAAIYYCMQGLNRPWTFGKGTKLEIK
Sequence of 1443_C16 (PG16) (TCN-116) (antibody) (VH): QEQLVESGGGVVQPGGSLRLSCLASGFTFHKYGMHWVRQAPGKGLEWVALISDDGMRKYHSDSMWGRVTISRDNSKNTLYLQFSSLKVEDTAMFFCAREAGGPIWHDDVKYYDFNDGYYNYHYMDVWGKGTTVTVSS
Sequence of 1443_C16 (PG16) (TCN-116) (antibody) (VL): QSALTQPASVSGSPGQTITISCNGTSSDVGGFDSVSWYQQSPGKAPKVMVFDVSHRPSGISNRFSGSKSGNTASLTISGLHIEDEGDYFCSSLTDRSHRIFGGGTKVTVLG
Sequence of 4980_N08 (PGT-143) (antibody) (VH): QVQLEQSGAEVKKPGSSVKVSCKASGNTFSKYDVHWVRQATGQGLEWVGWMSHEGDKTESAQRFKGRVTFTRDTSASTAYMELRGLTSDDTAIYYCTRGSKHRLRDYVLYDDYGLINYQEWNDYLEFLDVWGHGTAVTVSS
Sequence of 4980_N08 (PGT-143) (antibody) (VL): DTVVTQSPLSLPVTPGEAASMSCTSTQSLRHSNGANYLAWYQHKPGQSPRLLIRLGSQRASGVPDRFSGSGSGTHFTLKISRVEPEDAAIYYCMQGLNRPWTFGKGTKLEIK
Sequence of 4970_K22 (PGT-144) (antibody) (VH): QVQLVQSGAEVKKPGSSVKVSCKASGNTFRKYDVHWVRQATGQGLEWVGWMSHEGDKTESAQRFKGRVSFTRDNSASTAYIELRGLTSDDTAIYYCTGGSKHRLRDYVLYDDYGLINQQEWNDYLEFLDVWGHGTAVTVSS
Sequence of 4970_K22 (PGT-144) (antibody) (VL): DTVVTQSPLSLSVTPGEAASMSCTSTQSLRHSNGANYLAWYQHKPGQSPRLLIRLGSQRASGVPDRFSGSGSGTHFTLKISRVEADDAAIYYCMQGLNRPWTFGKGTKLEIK
Sequence of 4995_E20 (PGT-142) (antibody) (VH): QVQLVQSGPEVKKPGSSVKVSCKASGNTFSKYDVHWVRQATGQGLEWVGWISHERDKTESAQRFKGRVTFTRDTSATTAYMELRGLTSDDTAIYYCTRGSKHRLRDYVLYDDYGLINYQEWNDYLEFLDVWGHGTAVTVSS

Row | Substance | IC50 [1] | IC50 [2] | IC50 [3] | IC50 [4] | IC50 [5] | IC50 [6] | IC50 [7] | IC50 [8] | IC50 [9] | IC50 [10] | IC50 [11] | IC50 [12] | IC50 [13] | IC50 [14] | IC50 [15] | IC50 [16] | IC50 [17] | IC50 [18] | IC50 [19] | IC50 [20] | also measured
1 | b12 (antibody) | > 50 µg/mL | > 50 µg/mL | 5.46 µg/mL | > 50 µg/mL | > 50 µg/mL | > 50 µg/mL | 13.9 µg/mL | > 50 µg/mL | 1.51 µg/mL | > 50 µg/mL | > 50 µg/mL | > 50 µg/mL | 2.66 µg/mL | 13.3 µg/mL | > 50 µg/mL | > 50 µg/mL | > 50 µg/mL | > 50 µg/mL | > 50 µg/mL | > 50 µg/mL | 
2 | 2F5 (antibody) | > 50 µg/mL | > 50 µg/mL | > 50 µg/mL | 44.7 µg/mL | > 50 µg/mL | > 50 µg/mL | > 50 µg/mL | > 50 µg/mL | > 50 µg/mL | > 50 µg/mL | > 50 µg/mL | > 50 µg/mL | > 50 µg/mL | > 50 µg/mL | 18.4 µg/mL | > 50 µg/mL | > 50 µg/mL | > 50 µg/mL | > 50 µg/mL | > 50 µg/mL | 
3 | 4E10 (antibody) | 5.84 µg/mL | 0.56 µg/mL | 24.2 µg/mL | 18.2 µg/mL | 11 µg/mL | 5.71 µg/mL | 1.95 µg/mL | 0.44 µg/mL | 2.97 µg/mL | 5.58 µg/mL | 5.66 µg/mL | 4.94 µg/mL | 16.4 µg/mL | 2.52 µg/mL | 2.1 µg/mL | 2.48 µg/mL | 22.6 µg/mL | 2.8 µg/mL | 1.47 µg/mL | 3.49 µg/mL | 
4 | 1495_C14 (PGC14) (antibody) | > 50 µg/mL | > 50 µg/mL | > 50 µg/mL | > 50 µg/mL | > 50 µg/mL | > 50 µg/mL | > 50 µg/mL | > 50 µg/mL | > 50 µg/mL | > 50 µg/mL | > 50 µg/mL | > 50 µg/mL | > 50 µg/mL | > 50 µg/mL | > 50 µg/mL | > 50 µg/mL | > 50 µg/mL | > 50 µg/mL | > 50 µg/mL | 12 µg/mL | 
5 | 4980_N08 (PGT-143) (antibody) |  |  |  |  |  |  |  |  |  |  |  |  |  |  |  |  |  |  |  |  | IC50 (neutralizing activity, pseudovirus) [21]: 0.0064 µg/mL; IC50 (neutralizing activity, pseudovirus) [22]: > 10 µg/mL; IC50 (neutralizing activity, pseudovirus) [23]: > 10 µg/mL; IC50 (neutralizing activity, pseudovirus) [24]: 0.505 µg/mL; IC50 (neutralizing activity, pseudovirus) [25]: > 10 µg/mL; IC50 (neutralizing activity, pseudovirus) [26]: 0.0657 µg/mL; IC50 (neutralizing activity, pseudovirus) [27]: 4.43 µg/mL; IC50 (neutralizing activity, pseudovirus) [28]: 1.82 µg/mL; IC50 (neutralizing activity, pseudovirus) [29]: 0.585 µg/mL; IC50 (neutralizing activity, pseudovirus) [30]: > 10 µg/mL; IC50 (neutralizing activity, pseudovirus) [31]: > 10 µg/mL; IC50 (neutralizing activity, pseudovirus) [32]: > 10 µg/mL; IC50 (neutralizing activity, pseudovirus) [33]: 0.0028 µg/mL; IC50 (neutralizing activity, pseudovirus) [34]: 0.0021 µg/mL; neutralization IC50 (pseudovirus) [35]: > 10 µg/mL
6 | 4970_K22 (PGT-144) (antibody) |  |  |  |  |  |  |  |  |  |  |  |  |  |  |  |  |  |  |  |  | IC50 (neutralizing activity, pseudovirus) [21]: 0.128 µg/mL; IC50 (neutralizing activity, pseudovirus) [22]: > 10 µg/mL; IC50 (neutralizing activity, pseudovirus) [23]: > 10 µg/mL; IC50 (neutralizing activity, pseudovirus) [24]: > 10 µg/mL; IC50 (neutralizing activity, pseudovirus) [25]: > 10 µg/mL; IC50 (neutralizing activity, pseudovirus) [26]: 4.02 µg/mL; IC50 (neutralizing activity, pseudovirus) [27]: > 10 µg/mL; IC50 (neutralizing activity, pseudovirus) [28]: > 10 µg/mL; IC50 (neutralizing activity, pseudovirus) [29]: > 10 µg/mL; IC50 (neutralizing activity, pseudovirus) [30]: > 10 µg/mL; IC50 (neutralizing activity, pseudovirus) [31]: > 10 µg/mL; IC50 (neutralizing activity, pseudovirus) [32]: > 10 µg/mL; IC50 (neutralizing activity, pseudovirus) [33]: 0.0934 µg/mL; IC50 (neutralizing activity, pseudovirus) [34]: 0.158 µg/mL; neutralization IC50 (pseudovirus) [35]: > 10 µg/mL
7 | 2G12 (antibody) | > 50 µg/mL | > 50 µg/mL | > 50 µg/mL | > 50 µg/mL | > 50 µg/mL | > 50 µg/mL | > 50 µg/mL | > 50 µg/mL | > 50 µg/mL | > 50 µg/mL | 2.93 µg/mL | > 50 µg/mL | > 50 µg/mL | 1.75 µg/mL | > 50 µg/mL | > 50 µg/mL | > 50 µg/mL | 18.6 µg/mL | > 50 µg/mL | > 50 µg/mL | 
8 | 4995_E20 (PGT-142) (antibody) |  |  |  |  |  |  |  |  |  |  |  |  |  |  |  |  |  |  |  |  | IC50 (neutralizing activity, pseudovirus) [21]: 0.0085 µg/mL; IC50 (neutralizing activity, pseudovirus) [22]: > 10 µg/mL; IC50 (neutralizing activity, pseudovirus) [23]: > 10 µg/mL; IC50 (neutralizing activity, pseudovirus) [24]: 0.272 µg/mL; IC50 (neutralizing activity, pseudovirus) [25]: > 10 µg/mL; IC50 (neutralizing activity, pseudovirus) [26]: 0.0578 µg/mL; IC50 (neutralizing activity, pseudovirus) [27]: 5.42 µg/mL; IC50 (neutralizing activity, pseudovirus) [28]: 1.23 µg/mL; IC50 (neutralizing activity, pseudovirus) [29]: 0.712 µg/mL; IC50 (neutralizing activity, pseudovirus) [30]: > 10 µg/mL; IC50 (neutralizing activity, pseudovirus) [31]: > 10 µg/mL; IC50 (neutralizing activity, pseudovirus) [32]: > 10 µg/mL; IC50 (neutralizing activity, pseudovirus) [33]: 0.0022 µg/mL; IC50 (neutralizing activity, pseudovirus) [34]: 0.0017 µg/mL; neutralization IC50 (pseudovirus) [35]: > 10 µg/mL
9 | 1496_C09 (PG9) (TCN-109) (antibody) | 0.09 µg/mL |  | 1.18 µg/mL |  | 12.4 µg/mL | 0.19 µg/mL | 0.51 µg/mL | 0.24 µg/mL |  | 0.17 µg/mL |  | 0.23 µg/mL | 2.98 µg/mL | 0.5 µg/mL |  | 0.64 µg/mL | 0.22 µg/mL |  | 1.52 µg/mL | 0.01 µg/mL | neutralization IC50 (pseudovirus) [21]: 0.0048 µg/mL; neutralization IC50 (pseudovirus) [22]: 0.113 µg/mL; neutralization IC50 (pseudovirus) [23]: 1.91 µg/mL; neutralization IC50 (pseudovirus) [24]: 2.45 µg/mL; neutralization IC50 (pseudovirus) [25]: 2.04 µg/mL; neutralization IC50 (pseudovirus) [26]: 0.0375 µg/mL; neutralization IC50 (pseudovirus) [27]: 0.214 µg/mL; neutralization IC50 (pseudovirus) [28]: 0.121 µg/mL; neutralization IC50 (pseudovirus) [29]: 0.687 µg/mL; neutralization IC50 (pseudovirus) [32]: 0.31 µg/mL; neutralization IC50 (pseudovirus) [33]: 0.103 µg/mL; neutralization IC50 (pseudovirus) [34]: 0.048 µg/mL; neutralization IC50 (pseudovirus) [35]: 0.161 µg/mL
10 | VRC01 (antibody) |  |  |  |  |  |  |  |  |  |  |  |  |  |  |  |  |  |  |  |  | IC50, pseudovirus neutralization [3]: 1.01 µg/mL; IC50 (µg/mL), pseudovirus neutralization [6]: 13 µg/mL; IC50 (µg/mL), pseudovirus neutralization [7]: 0.077 µg/mL; IC50 (µg/mL), pseudovirus neutralization [10]: 2.36 µg/mL; IC50 (µg/mL), pseudovirus neutralization [14]: 1.57 µg/mL; IC50 (µg/mL), pseudovirus neutralization [16]: > 50 µg/mL; IC50 (µg/mL), pseudovirus neutralization [17]: 3.4 µg/mL; IC50 (µg/mL), pseudovirus neutralization [18]: 0.396 µg/mL; IC50 (µg/mL), pseudovirus neutralization [19]: 0.366 µg/mL; IC50 (µg/mL), pseudovirus neutralization [20]: 1.13 µg/mL
11 | 1443_C16 (PG16) (TCN-116) (antibody) | 0.05 µg/mL | > 50 µg/mL | 5.09 µg/mL | 28.3 µg/mL | > 50 µg/mL | 0.25 µg/mL | 0.09 µg/mL | 0.48 µg/mL | > 50 µg/mL | 0.04 µg/mL | 16.8 µg/mL | 2.62 µg/mL | 2.55 µg/mL | 0.26 µg/mL | > 50 µg/mL | > 50 µg/mL | 0.04 µg/mL | > 50 µg/mL | 1.8 µg/mL | 0.002 µg/mL | 
12 | 4993_K13 (PGT-141) (antibody) |  |  |  |  |  |  |  |  |  |  |  |  |  |  |  |  |  |  |  |  | IC50 (neutralizing activity, pseudovirus) [21]: 0.0047 µg/mL; IC50 (neutralizing activity, pseudovirus) [22]: > 10 µg/mL; IC50 (neutralizing activity, pseudovirus) [23]: > 10 µg/mL; IC50 (neutralizing activity, pseudovirus) [24]: 0.822 µg/mL; IC50 (neutralizing activity, pseudovirus) [25]: > 10 µg/mL; IC50 (neutralizing activity, pseudovirus) [26]: 0.0563 µg/mL; IC50 (neutralizing activity, pseudovirus) [27]: 5.08 µg/mL; IC50 (neutralizing activity, pseudovirus) [28]: 2.35 µg/mL; IC50 (neutralizing activity, pseudovirus) [29]: 0.856 µg/mL; IC50 (neutralizing activity, pseudovirus) [30]: > 10 µg/mL; IC50 (neutralizing activity, pseudovirus) [31]: > 10 µg/mL; IC50 (neutralizing activity, pseudovirus) [32]: > 10 µg/mL; IC50 (neutralizing activity, pseudovirus) [33]: 0.0019 µg/mL; IC50 (neutralizing activity, pseudovirus) [34]: 0.0016 µg/mL; neutralization IC50 (pseudovirus) [35]: > 10 µg/mL
